From the RNAGym collection of RNA variant scans (doi:10.7554/elife.80360)

B1: HDV Ribozyme (parent)
chain: GGCCGGCAUGGUCCCAGCCUCCUCGCUGGCGCCGGCUGGGCAACAUUCCGAGGGGACCGUCCCCUCGGUAAUGGCGAAUGGGACCCA

Variants of: B1
Assay: self-cleavage, relative activity (ratio to wild type); higher = more cleavage; co-transcriptional

Row | Variant | self-cleavage
1 | GGCCGGCAUGGUCCCAGCCUCCUCGCUGGCCCCGGCUGGGCAACAUUCCGAGGGGACCGCCCCCUCGGUAAUGGCGAAUGGGACCCA | 0.525
2 | GGCCGGCAUGGUCCCAGCCUCCUCGCUGGCCCCGGCUGGGCAACAUUCCGAGGGGACCGACCCCUCGGUAAUGGCGAAUGGGACCCA | 0.434
3 | GGCCGGCAUGGUCCCAGCCUCCUCGCUGGCUCCGGCUGGGCAACAUUCCGAGGGGACCGUCCCCUCGGUAAUGGCGACUGGGACCCA | 0.0297
4 | GGCCGGCAUGGUCCCAGCCUCCUCGCUGGCUCCGGCUGGGCAACAUUCCGAGGGGACCGUCCCCUCGGUAAUGGCGAGUGGGACCCA | 0.0811
5 | GGCCGGCAUGGUCCCAGCCUCCUCGCUGGCUCCGGCUGGGCAACAUUCCGAGGGGACCGUCCCCUCGGUAAUGGCGAUUGGGACCCA | 0.0744
6 | GGCCGGCAUGGUCCCAGCCUCCUCGCUGGCUCCGGCUGGGCAACAUUCUGAGGGGACCGUCCCCUCGGUAAUGGCGAAUGGGACCCA | 0.302
7 | GGCCGGCAUGGUCCCAGCCUCCUCGCUGGCUCCGGCUGGGCAACAUUCGGAGGGGACCGUCCCCUCGGUAAUGGCGAAUGGGACCCA | 0.231
8 | GGCCGGCAUGGUCCCAGCCUCCUCGCUGGCUCCGGCUGGGCAACAUUCCGAUGGGACCGUCCCCUCGGUAAUGGCGAAUGGGACCCA | 0.492
9 | GGCCGGCAUGGUCCCAGCCUCCUCGCUGGCCCCGGCUGGGCAACAUUCCGAGGGGACCGUCCCCUCGGUAAUGGCGAACGGGACCCA | 0.282
10 | GGCCGGCAUGGUCCCAGCCUCCUCGCUGGCCCCGGCUUGGCAACAUUCCGAGGGGACCGUCCCCUCGGUAAUGGCGAAUGGGACCCA | 0.123
11 | GGCCGGCAUGGUCCCAGCCUCCUCGCUGGCUCCGGCUGGGCAACAUUCCGAGGGGACCGUGCCCUCGGUAAUGGCGAAUGGGACCCA | 0.332
12 | GGCCGGCAUGGUCCCAGCCUCCUCGCUGGCUCCGGCUGGGCAACAUUCCGAGGGGACCGUCCCCUAGGUAAUGGCGAAUGGGACCCA | 0.45
13 | GGCCGGCAUGGUCCCAGCCUCCUCGCUGGCUCCGGCUGGGCAACAUUCCGAGGGGACCGUCCCCUUGGUAAUGGCGAAUGGGACCCA | 0.437
14 | GGCCGGCAUGGUCCCAGCCUCCUCGCUGGCUCCGCCUGGGCAACAUUCCGAGGGGACCGUCCCCUCGGUAAUGGCGAAUGGGACCCA | 0.141
15 | GGCCGGCAUGGUCCCAGCCUCCUCGCUGGCCCCGGCGGGGCAACAUUCCGAGGGGACCGUCCCCUCGGUAAUGGCGAAUGGGACCCA | 0.214
16 | GGCCGGCAUGGUCCCAGCCUCCUCGCUGGCCCCGGCUGGACAACAUUCCGAGGGGACCGUCCCCUCGGUAAUGGCGAAUGGGACCCA | 0.406
17 | GGCCGGCAUGGUCCCAGCCUCCUCGCUGGCUCCGGCUGGGCAACAUUUCGAGGGGACCGUCCCCUCGGUAAUGGCGAAUGGGACCCA | 0.619
18 | GGCCGGCAUGGUCCCAGCCUCCUCGCUGGCUCCGGCUGGGCAACAUUGCGAGGGGACCGUCCCCUCGGUAAUGGCGAAUGGGACCCA | 0.543
19 | GGCCGGCAUGGUCCCAGCCUCCUCGCUGGCUCCGGCUGGGCAACAUUCCGAGGGGACCGUCCCCUCGGUAAUGGCGAAUGGGACCUA | 0.453
20 | GGCCGGCAUGGUCCCAGCCUCCUCGCUGGCUCCGGCUGGGCAACAUUCCGAGGGGACCGUCACCUCGGUAAUGGCGAAUGGGACCCA | 0.602
21 | GGCCGGCAUGGUCCCAGCCUCCUCGCUGGCUCCGGCUAGGCAACAUUCCGAGGGGACCGUCCCCUCGGUAAUGGCGAAUGGGACCCA | 0.109
22 | GGCCGGCAUGGUCCCAGCCUCCUCGCUGGCUCCGGCUCGGCAACAUUCCGAGGGGACCGUCCCCUCGGUAAUGGCGAAUGGGACCCA | 0.148

Row | Variant | self-cleavage
23 | GGCCGGCAUGGUCCCAGCCUCCUCGCUGGCUCCGGCUGGGCAACAUUCCGAGGGGACCGUCCCCUCGGUAAUGUCGAAUGGGACCCA | 0.136
24 | GGCCGGCAUGGUCCCAGCCUCCUCGCUGGCUCCGGCUGCGCAACAUUCCGAGGGGACCGUCCCCUCGGUAAUGGCGAAUGGGACCCA | 0.166
25 | GGCCGGCAUGGUCCCAGCCUCCUCGCUGGCUCCGGCUGAGCAACAUUCCGAGGGGACCGUCCCCUCGGUAAUGGCGAAUGGGACCCA | 0.0361
26 | GGCCGGCAUGGUCCCAGCCUCCUCGCUGGCUCCGGCUGGGCAACAUUCCGAGGGGACCGUCCCCUCGGUAAUGGCGAAUGGGACCCU | 0.521
27 | GGCCGGCAUGGUCCCAGCCUCCUCGCUGGCUCCGGCUGGGCGACAUUCCGAGGGGACCGUCCCCUCGGUAAUGGCGAAUGGGACCCA | 0.0923
28 | GGCCGGCAUGGUCCCAGCCUCCUCGCUGGCCCCGGCUGCGCAACAUUCCGAGGGGACCGUCCCCUCGGUAAUGGCGAAUGGGACCCA | 0.0475
29 | GGCCGGCAUGGUCCCAGCCUCCUCGCUGGCCCCGGCUGUGCAACAUUCCGAGGGGACCGUCCCCUCGGUAAUGGCGAAUGGGACCCA | 0.277
30 | GGCCGGCAUGGUCCCAGCCUCCUCGCUGGCCCCGGCUGGGCAACAUUCCGAGGGGACCGUCCCCUCGGUAAUGGCCAAUGGGACCCA | 0.609
31 | GGCCGGCAUGGUCCCAGCCUCCUCGCUGGCCCCGGCUGGGCAACAUUCCGAGGGGACCGUCCCCUCGGUAAUGGCAAAUGGGACCCA | 0.453
32 | GGCCGGCAUGGUCCCAGCCUCCUCGCUGGCCCCGGCUGGGCAACAUUCCGAGGGGACCGUCCCCUCGGUAAUGGCGAAUGGUACCCA | 0.128
33 | GGCCGGCAUGGUCCCAGCCUCCUCGCUGGCCCCGGCUGGGCAACAUUCCGAGGGGACCGUCCCCUCGGUAAUGGCGAAUGAGACCCA | 0.0791
34 | GGCCGGCAUGGUCCCAGCCUCCUCGCUGGCUCCGGCUGGGCAACAUUCCGCGGGGACCGUCCCCUCGGUAAUGGCGAAUGGGACCCA | 0.462
35 | GGCCGGCAUGGUCCCAGCCUCCUCGCUGGCCCCGGCUGGGCAACAUUCCGAGGGGACCGUCCCCUCGGUAAUCGCGAAUGGGACCCA | 0.155
36 | GGCCGGCAUGGUCCCAGCCUCCUCGCUGGCUCCGGCUGGGCAACAUUCCGAGGGGACCGUCCCCUCGGUAAUGGCGAAUCGGACCCA | 0.0449
37 | GGCCGGCAUGGUCCCAGCCUCCUCGCUGGCUCCGGCUGGGCAACAUUCCUAGGGGACCGUCCCCUCGGUAAUGGCGAAUGGGACCCA | 0.415
38 | GGCCGGCAUGGUCCCAGCCUCCUCGCUGGCUCCGGCUGGGCAACAUUCCGAGGGGACCGUCCCCUCGGUAAUGGCCAAUGGGACCCA | 0.479
39 | GGCCGGCAUGGUCCCAGCCUCCUCGCUGGCUCCGGCUGGGCAACAUUCCGAGGGGACCGUCCCCUCGGUAAUGGCGAAUGGCACCCA | 0.136
40 | GGCCGGCAUGGUCCCAGCCUCCUCGCUGGCGACGGCUGGGCAACCUUCCGAGGGGACCGUCCCCUCGGUAAUGGCGAAUGGGACCCA | 0.0875
41 | GGCCGGCAUGGUCCCAGCCUCCUCGCUGGCGACGGCUGGGCAACAUUCCGUGGGGACCGUCCCCUCGGUAAUGGCGAAUGGGACCCA | 0.256
42 | GGCCGGCAUGGUCCCAGCCUCCUCGCUGGCUCCGGCUGGGCAACAUUCCGAGGGGACCGUCCCCUCAGUAAUGGCGAAUGGGACCCA | 0.369
43 | GGCCGGCAUGGUCCCAGCCUCCUCGCUGGCCCCGGCUGGGCAACAUUCCGAGGGGACCGUCCCCUCGGUAAUGACGAAUGGGACCCA | 0.0573
44 | GGCCGGCAUGGUCCCAGCCUCCUCGCUGGCUCCGGCUGGGCAACAUUCCGAGGGGUCCGUCCCCUCGGUAAUGGCGAAUGGGACCCA | 0.489

Row | Variant | self-cleavage
45 | GGCCGGCAUGGUCCCAGCCUCCUCGCUGGCUCCCGCUGGGCAACAUUCCGAGGGGACCGUCCCCUCGGUAAUGGCGAAUGGGACCCA | 0.117
46 | GGCCGGCAUGGUCCCAGCCUCCUCGCUGGCCCCGGCUGGGCAACAUACCGAGGGGACCGUCCCCUCGGUAAUGGCGAAUGGGACCCA | 0.467
47 | GGCCGGCAUGGUCCCAGCCUCCUCGCUGGCCCCGGCUGGGCAACAGUCCGAGGGGACCGUCCCCUCGGUAAUGGCGAAUGGGACCCA | 0.266
48 | GGCCGGCAUGGUCCCAGCCUCCUCGCUGGCCCCGGCUGGGCAACAAUCCGAGGGGACCGUCCCCUCGGUAAUGGCGAAUGGGACCCA | 0.256
49 | GGCCGGCAUGGUCCCAGCCUCCUCGCUGGCUCCGGCUGGGCAACAUUCCGAGGGGACCGUCCCCUCGGUAAUGGAGAAUGGGACCCA | 0.0665
50 | GGCCGGCAUGGUCCCAGCCUCCUCGCUGGCCCCGGCUGGGCAACAUUCCGAGGGGACCGUCCCCUCGGCAAUGGCGAAUGGGACCCA | 0.534
51 | GGCCGGCAUGGUCCCAGCCUCCUCGCUGGCCCCGGCUGGGCAACAUUCCGAGGGGACCGUCCCCUCGGGAAUGGCGAAUGGGACCCA | 0.394
52 | GGCCGGCAUGGUCCCAGCCUCCUCGCUGGCUCCGGCUGGGCAACAUUCCGAGGGCACCGUCCCCUCGGUAAUGGCGAAUGGGACCCA | 0.314
53 | GGCCGGCAUGGUCCCAGCCUCCUCGCUGGCUCCGGCUGGUCAACAUUCCGAGGGGACCGUCCCCUCGGUAAUGGCGAAUGGGACCCA | 0.166
54 | GGCCGGCAUGGUCCCAGCCUCCUCGCUGGCUCCGGCUGGGCAACAUUCCGAGGGGAACGUCCCCUCGGUAAUGGCGAAUGGGACCCA | 0.464
55 | GGCCGGCAUGGUCCCAGCCUCCUCGCUGGCGACGGCUGGGCCACAUUCCGAGGGGACCGUCCCCUCGGUAAUGGCGAAUGGGACCCA | 0.162
56 | GGCCGGCAUGGUCCCAGCCUCCUCGCUGGCGACGGCUGGGCGACAUUCCGAGGGGACCGUCCCCUCGGUAAUGGCGAAUGGGACCCA | 0.0519
57 | GGCCGGCAUGGUCCCAGCCUCCUCGCUGGCUCCGGCUGGGCAACAUUCCGAGGGGACCGUCCCCUCGGUCAUGGCGAAUGGGACCCA | 0.161
58 | GGCCGGCAUGGUCCCAGCCUCCUCGCUGGCUCCGGCUGGGAAACAUUCCGAGGGGACCGUCCCCUCGGUAAUGGCGAAUGGGACCCA | 0.136
59 | GGCCGGCAUGGUCCCAGCCUCCUCGCUGGCCCCGGCUGGGCAACAUUCCGAGGGCACCGUCCCCUCGGUAAUGGCGAAUGGGACCCA | 0.327
60 | GGCCGGCAUGGUCCCAGCCUCCUCGCUGGCUCCGGCUGGGCAACAUUCCGAGGGGACCGUCCCCUCGGUAAUGGCGAAUGGGACGCA | 0.481
61 | GGCCGGCAUGGUCCCAGCCUCCUCGCUGGCGACGGCUGGGCAACAUUCCGAGGGGACCGUCCCCUCGGUAAUGGCGAAUGGGACCCA | 0.21
62 | GGCCGGCAUGGUCCCAGCCUCCUCGCUGGCUCCGGCUGGGCAACAUCCCGAGGGGACCGUCCCCUCGGUAAUGGCGAAUGGGACCCA | 0.383
63 | GGCCGGCAUGGUCCCAGCCUCCUCGCUGGCCCCGGCUGGGCAACAUUCCGAGGGGACCGUCCCCUCGGUAAAGGCGAAUGGGACCCA | 0.166
64 | GGCCGGCAUGGUCCCAGCCUCCUCGCUGGCCCCGGCUGGGCAACAUUCCGAGGGGACCGUCCCCUCGGUAACGGCGAAUGGGACCCA | 0.262
